Measurements: article PMC11459905, “Identification of SLC25A46 interaction interfaces with mitochondrial membrane fusogens Opa1 and Mfn2” (The Journal of Biological Chemistry, 2024)

Target: T1, Strep-Opa1 (s-Opa1, amino acids 253-960), expressed in P. pastoris (human, UniProt O60313 253-960)
T1 construct: Opa1 (optic atrophy 1), human, residues 253-960 (s-Opa1); N-terminal Twin-Strep tag, HRV 3C cleavage site and (G4S)3 linker; The methods also name a tagged Opa1(263-960); also called optic atrophy 1; Opa1(253-960); source: P. pastoris SMD1163, in GDN extract (lysate); purified as a complex with SLC25A46 for cross-linking; not shown: Twin-Strep, N-terminal, kept
T1 sequence (looked up): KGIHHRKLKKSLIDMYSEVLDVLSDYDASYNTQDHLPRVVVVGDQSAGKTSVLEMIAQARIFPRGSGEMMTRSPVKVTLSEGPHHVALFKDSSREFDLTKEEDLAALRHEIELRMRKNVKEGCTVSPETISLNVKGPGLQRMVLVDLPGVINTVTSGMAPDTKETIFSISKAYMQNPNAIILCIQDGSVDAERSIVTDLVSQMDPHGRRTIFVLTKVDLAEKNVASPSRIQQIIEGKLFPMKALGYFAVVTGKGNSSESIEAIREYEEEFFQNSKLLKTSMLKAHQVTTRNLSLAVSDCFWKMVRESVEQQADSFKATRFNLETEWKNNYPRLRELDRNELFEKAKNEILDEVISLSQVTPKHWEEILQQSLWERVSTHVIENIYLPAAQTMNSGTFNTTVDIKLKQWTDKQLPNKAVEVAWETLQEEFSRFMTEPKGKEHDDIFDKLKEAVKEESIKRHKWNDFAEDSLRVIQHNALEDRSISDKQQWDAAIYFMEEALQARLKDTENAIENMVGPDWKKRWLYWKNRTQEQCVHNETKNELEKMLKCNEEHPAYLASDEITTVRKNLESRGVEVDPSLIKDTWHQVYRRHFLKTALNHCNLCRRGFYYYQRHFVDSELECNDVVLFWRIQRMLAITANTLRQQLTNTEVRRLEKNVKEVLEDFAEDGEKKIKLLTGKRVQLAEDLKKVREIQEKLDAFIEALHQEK
Test: pull-down; GDN extracts of P. pastoris expressing or coexpressing the proteins; Strep-tagged Opa1 or Mfn2 held on StrepTactin XT 4Flow resin in a spin column, 4 °C, 25 mM Hepes, 150 mM NaCl, pH 8.0, washes with 0.1% GDN, elution with 50 mM biotin; Western blot; also with GTPγS, GMPPCP or GDP added to the lysates (no effect on coelution)
Conditions: partners not purified

B1: Solute carrier family 25 member A46 with C-terminal deca-histidine (SLC25A46-His), wild type (natural protein, human, UniProt Q96AG3 1-418, looked up)
chain: MHPRRPDGFDGLGYRGGARDEQGFGGAFPARSFSTGSDLGHWVTTPPDIPGSRNLHWGEKSPPYGVPTTSTPYEGPTEEPFSSGGGGSVQGQSSEQLNRFAGFGIGLASLFTENVLAHPCIVLRRQCQVNYHAQHYHLTPFTVINIMYSFNKTQGPRALWKGMGSTFIVQGVTLGAEGIISEFTPLPREVLHKWSPKQIGEHLLLKSLTYVVAMPFYSASLIETVQSEIIRDNTGILECVKEGIGRVIGMGVPHSKRLLPLLSLIFPTVLHGVLHYIISSVIQKFVLLILKRKTYNSHLAESTSPVQSMLDAYFPELIANFAASLCSDVILYPLETVLHRLHIQGTRTIIDNTDLGYEVLPINTQYEGMRDCINTIRQEEGVFGFYKGFGAVIIQYTLHAAVLQITKIIYSTLLQNNI
notes: SLC25A46, human; gene synthesized (GenScript), cloned into pPICZ A; C terminus fused to (G4S)3 linker, TEV cleavage site and deca-histidine; only a pPICZ A (P. pastoris) construct of SLC25A46 is described; also called WT SLC25A46; source: P. pastoris SMD1163, in GDN extract (lysate); also recombinantly expressed and purified; not shown: His10, C-terminal, kept
binding result: binds
